Key:
[1] = molecular target: Apaf-1 (human (endogenous in HeLa)) (UniProt O14727)
[2] = molecular target: Apaf-1 (human (endogenous in HeLa)) (UniProt O14727); remark: listed apart in the source

UniProt O14727, sequence (O14727 whole entry): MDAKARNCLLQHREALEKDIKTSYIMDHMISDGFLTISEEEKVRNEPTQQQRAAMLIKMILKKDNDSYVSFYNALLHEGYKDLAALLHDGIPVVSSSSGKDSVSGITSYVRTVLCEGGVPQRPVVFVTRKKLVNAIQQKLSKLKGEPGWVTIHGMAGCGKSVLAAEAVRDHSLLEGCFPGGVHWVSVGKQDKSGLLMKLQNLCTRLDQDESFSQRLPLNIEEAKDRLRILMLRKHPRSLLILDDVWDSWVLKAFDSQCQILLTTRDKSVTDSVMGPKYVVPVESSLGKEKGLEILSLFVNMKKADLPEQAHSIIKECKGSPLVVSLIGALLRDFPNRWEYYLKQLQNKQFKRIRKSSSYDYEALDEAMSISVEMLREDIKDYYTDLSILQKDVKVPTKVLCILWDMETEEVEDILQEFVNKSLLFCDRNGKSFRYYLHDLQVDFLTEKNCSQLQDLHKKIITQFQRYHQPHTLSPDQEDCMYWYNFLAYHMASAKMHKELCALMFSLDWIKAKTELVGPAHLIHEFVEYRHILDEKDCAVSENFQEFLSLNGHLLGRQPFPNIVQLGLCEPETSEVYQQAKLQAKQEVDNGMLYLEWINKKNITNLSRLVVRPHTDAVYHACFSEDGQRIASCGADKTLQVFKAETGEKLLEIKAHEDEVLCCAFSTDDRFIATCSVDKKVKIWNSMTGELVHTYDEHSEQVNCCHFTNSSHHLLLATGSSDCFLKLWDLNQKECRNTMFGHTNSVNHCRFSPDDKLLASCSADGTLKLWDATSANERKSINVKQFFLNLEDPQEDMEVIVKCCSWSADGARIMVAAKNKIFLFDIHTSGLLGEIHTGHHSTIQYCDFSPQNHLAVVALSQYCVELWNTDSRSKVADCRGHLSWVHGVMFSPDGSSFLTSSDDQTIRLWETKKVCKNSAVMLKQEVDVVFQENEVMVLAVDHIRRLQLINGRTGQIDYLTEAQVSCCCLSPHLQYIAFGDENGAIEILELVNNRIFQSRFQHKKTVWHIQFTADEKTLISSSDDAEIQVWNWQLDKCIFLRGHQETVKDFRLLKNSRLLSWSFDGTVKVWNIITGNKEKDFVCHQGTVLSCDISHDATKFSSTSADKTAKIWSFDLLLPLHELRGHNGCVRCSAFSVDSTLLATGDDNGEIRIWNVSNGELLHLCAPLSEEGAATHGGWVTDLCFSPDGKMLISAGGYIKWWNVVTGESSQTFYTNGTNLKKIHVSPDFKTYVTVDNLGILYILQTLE

For “Cytochrome c from equine heart (from UniProt P00004 1-105) (natural protein)”, which cell-free caspase 3 activation in HeLa cytosol (DEVD-pNA), relative to non-modified Cyt c (the reference itself) [1] is on record?
The cell-free caspase 3 activation in HeLa cytosol (DEVD-pNA), relative to non-modified Cyt c (the reference itself) was 100%.

And the cell-free caspase 9 activation in HeLa cytosol (LEHD-pNA), relative to non-modified Cyt c (the reference itself) [1]?
The cell-free caspase 9 activation in HeLa cytosol (LEHD-pNA), relative to non-modified Cyt c (the reference itself) was 100%.

And the relative caspase 3 activation in a cell-free system after precipitation of Cyt c with acetone (water-organic solvent interface) [2]?
Its relative caspase 3 activation in a cell-free system after precipitation of Cyt c with acetone (water-organic solvent interface) is 51%.

And the relative caspase 3 activation in a cell-free system after precipitation of Cyt c with acetonitrile (water-organic solvent interface) [2]?
Its relative caspase 3 activation in a cell-free system after precipitation of Cyt c with acetonitrile (water-organic solvent interface) is 64%.

Reference: PMC4137108
